This note sets out measurements from patent US20250059292A1 (JCR PHARMACEUTICALS, published 2025).

The target of experiment [1] is T1, mouse transferrin receptor extracellular domain (position 87 to position 763 of SEQ ID NO: 39) (mouse, UniProt Q62351 87-763).
T1 construct: Coated on the ELISA plate at 10 ug/mL; also called mouse TfR; mTfR
The experiment can be described thus: ELISA: mouse TfR extracellular domain coated on the plate, detected with anti-hI2S monoclonal antibody and HRP-labeled secondary antibody. The procedure: The binding activities of the obtained three types of proteins, mscFv-GS3-hI2S, mscFv2-GS3-hI2S, and hI2S-mscFv2, to the mouse TfR receptor were measured by the ELISA method. The ELISA method was generally performed in the following manner. To each well of a 96-well microtiter plate (Nunc), 100 μL of a mouse transferrin receptor extracellular domain having an amino acid sequence from position 87 to position 763 of an amino acid sequence represented by SEQ ID NO: 39 diluted with 0.05 M bicarbonate buffer (pH 9.6) to a concentration of 10 μg/mL was added, and the plate was allowed to stand at room temperature for at least 1 hour to adsorb the antibody to the plate. Then, 300 μL of TBS containing 1% BSA and 0.05% Tween20 was added to each well, and the plate was allowed to stand at room temperature for 1 hour. Each well was washed three times with TBS containing 0.05% Tween20 (TBS-T), followed by dilution with TBS containing 0.1% BSA and 0.05% Tween20 to 300, 100, 33.33, 11.11, 3.70, 1.23, 0.41, or 0.14 nM for mscFv-GS3-hI2S, 600, 200, 66.67, 22.22, 7.41, 2.47, 0.82, or 0.27 nM for mscFv2-GS3-hI2S, and 1200, 400, 133.33, 44.44, 14.81, 4.94, 1.65, or 0.55 nM for hI2S-mscFv2, and 100 μL of each thereof was added to each well. The plate was allowed to stand at room temperature for at least 1 hour. After the plate was washed three times with TBS-T, anti-hI2S monoclonal antibodies were diluted to 0.5 μg/mL with TBS containing 0.1% BSA and 0.05% Tween20, 100 μL thereof was added to each well, and the plate was allowed to stand at room temperature for at least 1 hour. The plate was washed three times with the TBS-T, then 100 μL of an HRP-labeled anti-human IgG polyclonal antibody (Bethyl) solution diluted to 50 ng/mL with TBS containing 0.1% BSA and 0.05% Tween20 was added to each well, and the plate was allowed to stand at room temperature for at least 1 hour. […] Then, 100 μL of a stop solution (1 N hydrochloride) was added to each well, and the absorbance at 450 nm for each well was measured using a plate reader (SpectraMax iD3, MOLECULAR DEVICES).

For experiment [2], the target named is T1, mouse transferrin receptor …. The experiment can be described thus: ELISA: mouse TfR extracellular domain coated on the plate, detected with anti-I2S monoclonal antibody and HRP-labeled secondary antibody. The procedure:
The recombinant proteins of mscFv3-GS3-hI2S obtained by an ordinary method using CHO cells were measured for their binding activity to mouse transferrin receptor by the ELISA method. The ELISA method was generally performed in the following manner. To each well of a 96-well microtiter plate (Nunc), 100 μL of a mouse transferrin receptor extracellular domain having an amino acid sequence from position 87 to position 763 of an amino acid sequence represented by SEQ ID NO: 39 diluted with 0.05 M bicarbonate buffer (pH 9.6) to a concentration of 10 μg/mL was added, and the plate was allowed to stand at room temperature for at least 1 hour to adsorb the antibody to the plate. Then, 300 μL of TBS containing 1% BSA and 0.05% Tween20 was added to each well, and the plate was allowed to stand at room temperature for 1 hour. Each well was washed three times with TBS containing 0.05% Tween20 (TBS-T). Then, a solution containing mscFv3-GS3-hI2S was diluted using TBS containing 0.1% BSA and 0.05% Tween20 to a concentration of mscFv3-GS3-hI2S of 200, 66.7, 22.2, 7.41, 2.47, 0.82, and 0.27 nM, and 100 μL of the diluted solution was added to each well. The plate was allowed to stand at room temperature for at least 1 hour. […] Then, 100 μL of a stop solution (1 N hydrochloride) was added to each well, and the absorbance at 450 nm for each well was measured using a plate reader (MOLECULAR DEVICES).

Changes are numbered by the printed parent chain.

T1 sequence (Q62351 87-763): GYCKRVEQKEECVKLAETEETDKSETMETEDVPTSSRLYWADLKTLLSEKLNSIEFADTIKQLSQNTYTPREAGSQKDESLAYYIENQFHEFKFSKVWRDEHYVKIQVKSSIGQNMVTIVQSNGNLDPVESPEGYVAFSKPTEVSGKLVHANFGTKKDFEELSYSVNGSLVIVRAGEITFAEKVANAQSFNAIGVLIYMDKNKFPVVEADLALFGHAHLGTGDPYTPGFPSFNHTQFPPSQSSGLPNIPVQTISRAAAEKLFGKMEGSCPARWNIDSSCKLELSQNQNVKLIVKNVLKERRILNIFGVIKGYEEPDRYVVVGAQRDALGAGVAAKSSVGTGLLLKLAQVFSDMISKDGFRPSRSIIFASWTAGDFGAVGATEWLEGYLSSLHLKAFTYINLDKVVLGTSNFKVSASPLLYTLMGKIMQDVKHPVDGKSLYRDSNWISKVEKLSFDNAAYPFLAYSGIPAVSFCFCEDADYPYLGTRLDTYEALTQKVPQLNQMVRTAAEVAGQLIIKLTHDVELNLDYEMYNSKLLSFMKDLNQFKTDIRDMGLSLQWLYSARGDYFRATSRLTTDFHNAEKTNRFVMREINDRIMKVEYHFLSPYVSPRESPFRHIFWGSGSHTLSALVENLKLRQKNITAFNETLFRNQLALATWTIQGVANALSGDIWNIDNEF

B1: hI2S-mscFv2 (conjugate in which mouse anti-mTfRscFv antibody 2 is bound to the C-terminus of hI2S) (scFv)
chain: SETQANSTTDALNVLLIIVDDLRPSLGCYGDKLVRSPNIDQLASHSLLFQNAFAQQAVCAPSRVSFLTGRRPDTTRLYDFNSYWRVHAGNFSTIPQYFKENGYVTMSVGKVFHPGISSNHTDDSPYSWSFPPYHPSSEKYENTKTCRGPDGELHANLLCPVDVLDVPEGTLPDKQSTEQAIQLLEKMKTSASPFFLAVGYHKPHIPFRYPKEFQKLYPLENITLAPDPEVPDGLPPVAYNPWMDIRQREDVQALNISVPYGPIPVDFQRKIRQSYFASVSYLDTQVGRLLSALDDLQLANSTIIAFTSDHGWALGEHGEWAKYSNFDVATHVPLIFYVPGRTASLPEAGEKLFPYLDPFDSASQLMEPGRQSMDLVELVSLFPTLAGLAGLQVPPRCPVPSFHVELCREGKNLLKHFRFRDLEEDPYLPGNPRELIAYSQYPRPSDIPQWNSDKPSLKDIKIMGYSIRTIDYRYTVWVGFNPDEFLANFSDIHAGELYFVDSDPLQDHNMYNDSQGGDLFQLLMPEVQLVESGGGLVQPGNSLTLSCVASGFTFSNYGMHWIRQAPKKGLEWIAMIAYDSSKMNYADTVKGRFTISRDNSKNTLYLEMNSLRSEDTAMYYCAVPTAHYVVDVWGQGVSVTVSSGGGGSGGGGSGGGGSDIQMTQSPASLSASLEEIVTITCQASQDIGNWLAWYQQKPGKSPQLLIAGATSLADGVPSRFSGSRSGTQFSLKISRVQVEDIGIYYCLQAANTPWTFGGGTKLELKR
notes: Enzyme-scFv fusion, recombinant from CHO cells
In turn, B1 showed an EC50 in experiment [1] of 96.7 nM.

B2: mscFv3-GS3-hI2S (conjugate in which hI2S is bound to the C-terminus of mouse anti-mouse transferrin receptor single chain antibody mscFv 3 via the linker of … (scFv)
chain: EVQLVESGGGLVQPGNSLTLSCVASGFTFSNYGMHWIRQAPKKGLEWIAMIAYDSSKMNYADTVKGRFTISRDNSKNTLYLEMNSLRSEDTAMYYCAVPTAHYVVDVWGQGVSVTVSSGGGGSGGGGSGGGGSDIQMTQSPASLSASLEEIVTITCQASQDIGNWLAWYQQKPGKSPQLLIYGATSLADGVPSRFSGSRSGTQFSLKISRVQVEDIGIYYCLQAYNTPWTFGGGTKLELKRGGGGSGGGGSGGGGSSETQANSTTDALNVLLIIVDDLRPSLGCYGDKLVRSPNIDQLASHSLLFQNAFAQQAVCAPSRVSFLTGRRPDTTRLYDFNSYWRVHAGNFSTIPQYFKENGYVTMSVGKVFHPGISSNHTDDSPYSWSFPPYHPSSEKYENTKTCRGPDGELHANLLCPVDVLDVPEGTLPDKQSTEQAIQLLEKMKTSASPFFLAVGYHKPHIPFRYPKEFQKLYPLENITLAPDPEVPDGLPPVAYNPWMDIRQREDVQALNISVPYGPIPVDFQRKIRQSYFASVSYLDTQVGRLLSALDDLQLANSTIIAFTSDHGWALGEHGEWAKYSNFDVATHVPLIFYVPGRTASLPEAGEKLFPYLDPFDSASQLMEPGRQSMDLVELVSLFPTLAGLAGLQVPPRCPVPSFHVELCREGKNLLKHFRFRDLEEDPYLPGNPRELIAYSQYPRPSDIPQWNSDKPSLKDIKIMGYSIRTIDYRYTVWVGFNPDEFLANFSDIHAGELYFVDSDPLQDHNMYNDSQGGDLFQLLMP
notes: scFv-enzyme fusion, recombinant from CHO cells; also called mscFv 3-hI2S conjugate
Turning to B2, in experiment [2], the EC50 was found to be 4.4 nM.

B3: mscFv2-GS3-hI2S (conjugate in which hI2S is bound to the C-terminus of mouse anti-mTfRscFv antibody 2 via the linker of SEQ ID NO: 4) (scFv)
chain: B2 chain with Y182A, Y225A
notes: scFv-enzyme fusion, recombinant from CHO cells; also called mouse anti-mTfRscFv antibody 2-hI2S conjugate
Consider B3, for which the EC50 in experiment [1] was found to be 13.2 nM.

B4: mscFv-GS3-hI2S (conjugate in which human iduronate-2-sulfatase is bound to the C-terminus of a mouse anti-mouse transferrin receptor single chain antibody via … (scFv)
chain: B2 chain with A52Y, A101S
notes: scFv-enzyme fusion, expressed as a recombinant protein in CHO cells and collected from the culture supernatant; also called mouse anti-mTfRscFv antibody-hI2S conjugate
Take B4: in experiment [1], the 50% effective concentration (EC50) was determined as 2.4 nM.
